A word on the Kd: it is a measure of binding affinity in units of concentration. As usually defined, the koff is the rate constant with which the complex falls apart. A word on the kon: it is the rate constant with which the complex forms.

The target of experiment [1] is T1, his-tagged cTfR1 (Acro Biosystems p/n TFR-C524a) (cynomolgus monkey, UniProt H9EXL1 89-760 (rhesus entry)).
T1 construct: Bought reagent of the SPR assay
Nature of the experiment: SPR, Biacore X100, His-tagged TfR1 captured by anti-His. The procedure: Samples were analyzed via Surface Plasmon Resonance (SPR) to determine kinetics against cynomolgus monkey transferrin receptor 1 (cTfR1). Briefly, a Biacore X100 (Cytiva) was used for SPR measurements using a CM5 chip (carboxymethylated dextran surface, Cytiva p/n BR100399) with anti-histidine antibody irreversibly immobilized on the surface of both flow cells for the reversible capture of his-tagged cTfR1 (Acro Biosystems p/n TFR-C524a). The anti-histidine antibody was irreversibly immobilized via amine coupling using Cytiva provided Amine Coupling Kit (p/n BR100050) and His Capture Kit (p/n 28995056). […] Sample diluent was prepared in house and is composed of 10 mM HEPES buffer pH 7.4, 150 mM NaCl, 3 mM EDTA, and 0.05% Tween 20. Cytiva caps and vials compatible for Biacore X₁₀₀ were used for sample analysis. Each analysis cycle consists of a capture step followed by sample or blank injection, and finally a regeneration step that removes any sample and cTfR1 on the sensor surface. The capture step was performed at 5 μL/min with a contact time of 24 seconds over the active flow cell only, followed by a fluidics wash with 0.1% Tween 20. Generally, 2 μg/mL hTfR1 was a sufficient concentration to observe adequate hTfR1 captured consistently between cycles. Sample or buffer was injected at 30 μL/min with a contact time of 180 seconds and dissociation time of 180 seconds followed by a fluidics wash with 0.1% Tween 20. A 10 mM glycine solution at pH 1.5 (provided in His Capture Kit) was used for regeneration at 30 μL/min with a 60 second contact time. A cycle was performed for each sample concentration analyzed along with one cycle repeating one concentration for variability evaluation and 2-3 buffer cycles. Results were analyzed in Biacore Evaluation Software. Buffer cycles were averaged and subtracted from sample injections prior to kinetic fitting. A monovalent or kinetic fit was specified as relevant for the sample analyzed. Accuracy of the fit is evaluated and data points are excluded as applicable.
In general terms: Surface plasmon resonance follows binding to a sensor surface in real time, without labels.

For experiment [2], the target named is T2, human transferrin receptor 1 (hTfR1) (human, UniProt P02786 89-760, limits assumed).
T2 construct: The selections used the biotinylated ECD domain of hTfR1
Put plainly: competition phage ELISA (phage-displayed Fab). On the technique in general: An ELISA detects its analyte on a solid surface through an enzyme-linked reagent.

In experiment [3] the target is T3, his-tagged hTfR1 (Acro Biosystems p/n CD1-H5243) (human, UniProt P02786 89-760).
T3 construct: Bought reagent of the SPR assay
Nature of the experiment: SPR, Biacore X100, His-tagged TfR1 captured by anti-His. The procedure: Samples were analyzed via Surface Plasmon Resonance (SPR) to determine kinetics against human transferrin receptor 1 (hTfR1). Briefly, a Biacore X100 (Cytiva) was used for SPR measurements using a CM5 chip (carboxymethylated dextran surface, Cytiva p/n BR100399) with anti-histidine antibody irreversibly immobilized on the surface of both flow cells for the reversible capture of his-tagged hTfR1 (Acro Biosystems p/n CD1-H5243). The anti-histidine antibody was irreversibly immobilized via amine coupling using Cytiva provided Amine Coupling Kit (p/n BR100050) and His Capture Kit (p/n 28995056). […] Sample diluent was prepared in house and is composed of 10 mM HEPES buffer pH 7.4, 150 mM NaCl, 3 mM EDTA, and 0.05% Tween 20. Cytiva caps and vials compatible for Biacore X100 are used for sample analysis. Each analysis cycle consists of a capture step followed by sample or blank injection, and finally a regeneration step that removes any sample and hTfR1 on the sensor surface. The capture step was performed at 5 μL/min with a contact time of 24 seconds over the active flow cell only, followed by a fluidics wash with 0.1% Tween 20. Generally, 2 μg/mL hTfR1 is a sufficient concentration to observe adequate hTfR1 captured consistently between cycles. Sample or buffer was injected at 30 μL/min with a contact time of 180 seconds and a dissociation time of 180 seconds followed by a fluidics wash with 0.1% Tween 20. A 10 mM glycine solution at pH 1.5 (provided in His Capture Kit) was used for regeneration at 30 μL/min with a 60 second contact time. A cycle was performed for each sample concentration analyzed along with one cycle repeating one concentration for variability evaluation and 2-3 buffer cycles. Results were analyzed in Biacore Evaluation Software. Buffer cycles were averaged and subtracted from sample injections prior to kinetic fitting. A monovalent or kinetic fit was specified as relevant for the sample analyzed. Accuracy of the fit was evaluated and data points are excluded as applicable. […]

Experiment [4] has as its target T4, cynomolgus monkey transferrin receptor 1 (cTfR1) (cynomolgus monkey, UniProt H9EXL1 89-760 (rhesus entry)).
T4 construct: The ELISA against cTfR1 is not described in the text
Nature of the experiment: competition phage ELISA (phage-displayed Fab).

The target of experiment [5] is T4, cynomolgus monkey transferrin receptor …. Nature of the experiment: competition ELISA, Fab.
For experiment [6], the target named is T2, human transferrin receptor 1 (hTfR1). Nature of the experiment: competition ELISA, Fab.

T2 sequence (P02786 89-760 limits assumed): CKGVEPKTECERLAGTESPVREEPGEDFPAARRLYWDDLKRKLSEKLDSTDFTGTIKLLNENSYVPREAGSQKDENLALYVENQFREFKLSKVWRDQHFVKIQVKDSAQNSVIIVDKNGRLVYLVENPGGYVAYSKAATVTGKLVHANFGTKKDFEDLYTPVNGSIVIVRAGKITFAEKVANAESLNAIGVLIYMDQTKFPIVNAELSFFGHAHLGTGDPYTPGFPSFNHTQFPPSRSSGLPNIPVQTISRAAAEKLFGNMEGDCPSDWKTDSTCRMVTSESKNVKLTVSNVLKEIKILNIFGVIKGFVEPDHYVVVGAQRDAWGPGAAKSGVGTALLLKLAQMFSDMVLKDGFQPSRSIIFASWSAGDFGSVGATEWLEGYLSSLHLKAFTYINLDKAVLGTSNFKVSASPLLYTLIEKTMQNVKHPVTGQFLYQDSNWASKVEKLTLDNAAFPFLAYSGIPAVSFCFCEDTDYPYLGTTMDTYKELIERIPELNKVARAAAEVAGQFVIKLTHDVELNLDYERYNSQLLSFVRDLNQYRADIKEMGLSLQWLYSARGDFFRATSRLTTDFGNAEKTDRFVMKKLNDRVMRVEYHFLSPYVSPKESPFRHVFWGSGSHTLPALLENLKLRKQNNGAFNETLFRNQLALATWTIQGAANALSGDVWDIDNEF
T3 sequence (P02786 89-760 limits assumed): as above
T1 sequence (chain, as listed by the source): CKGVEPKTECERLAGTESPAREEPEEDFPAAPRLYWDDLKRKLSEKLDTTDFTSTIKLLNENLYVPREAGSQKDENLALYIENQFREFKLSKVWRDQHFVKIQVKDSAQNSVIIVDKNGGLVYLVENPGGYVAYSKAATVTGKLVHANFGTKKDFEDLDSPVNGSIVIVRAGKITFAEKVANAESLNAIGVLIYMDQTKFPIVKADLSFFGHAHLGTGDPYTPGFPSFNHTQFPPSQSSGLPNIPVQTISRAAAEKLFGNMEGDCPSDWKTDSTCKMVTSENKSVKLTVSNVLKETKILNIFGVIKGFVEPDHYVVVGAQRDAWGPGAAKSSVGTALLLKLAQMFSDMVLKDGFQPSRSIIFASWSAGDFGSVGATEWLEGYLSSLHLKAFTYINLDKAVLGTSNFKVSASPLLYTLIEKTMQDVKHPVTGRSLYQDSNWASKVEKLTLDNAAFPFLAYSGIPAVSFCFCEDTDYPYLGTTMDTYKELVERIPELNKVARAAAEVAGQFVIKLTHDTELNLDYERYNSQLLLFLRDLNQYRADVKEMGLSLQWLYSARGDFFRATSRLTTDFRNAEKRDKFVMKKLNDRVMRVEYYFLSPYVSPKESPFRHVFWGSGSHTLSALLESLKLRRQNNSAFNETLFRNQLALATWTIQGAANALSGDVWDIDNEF
T4 sequence (chain, as listed by the source): as above

B1: Fab0061 (Fab, V domains shown)
VH: EVQLVESGGGLVQPGGSLRLSCATSGYTFTSYWMHWVRQAPGKGLEWVAEINPTNGRVNYIEKFKSRITLSVDKSKSTVYLQMNSLRAEDTAVYYCARGTRAYHYWGQGTLVTVSS
VL: DIQLTQSPSSLSASVGDRVTITCRASDGLYSNLAWYQQKPGKAPKLLIYDATKLASGVPSRFSGSGSGTDYTLTISSLQPEDFATYYCQHFWGTPLTFGQGTKVEIKR
With B1, the equilibrium dissociation constant (Kd) in experiment [1] was found to be 1.75 nM; in experiment [2] it was 0.49 nM; in experiment [3], 0.708 nM; in experiment [4], 1.75 nM; in experiment [5] it was 5.15 nM; in experiment [6], 0.95 nM. The off-rate (koff) amounted to 0.0037 s⁻¹ in experiment [1] and 0.00101 s⁻¹ in experiment [3]. Further, the kon in experiment [1] came to 2.11e+06 M⁻¹ s⁻¹; in experiment [3] it was 1.42e+06 M⁻¹ s⁻¹.

B2: Fab0065 (Fab, V domains shown)
VH: EVQLVESGGGLVQPGGSLRLSCATSGYTFTSYWVHWVRQAPGKGLEWVAEINPTNGRSNYIEKFKSRITLSVDKSKSTVYLQMNSLRAEDTAVYYCARGTRAYHYWGQGTLVTVSS
VL: DIQLTQSPSSLSASVGDRVTITCRASDNLYRNLAWYQQKPGKAPKLLIYDATKLASGVPSRFSGSGSGTDYTLTISSLQPEDFATYYCQHFWGTPLTFGQGTKVEIKR
As for B2, the Kd in experiment [1] came out at 1.45 nM; in experiment [2], 0.26 nM; in experiment [3], 0.413 nM; in experiment [4], 0.57 nM; in experiment [5], 2.87 nM; in experiment [6], 0.33 nM. The koff in experiment [1] worked out at 0.00259 s⁻¹; in experiment [3], 0.00071 s⁻¹. Moreover, the kon in experiment [1] is 1.79e+06 M⁻¹ s⁻¹; in experiment [3], 1.72e+06 M⁻¹ s⁻¹.

B3: Fab0067 (Fab, V domains shown)
VH: EVQLVESGGGLVQPGGSLRLSCATSGYTFTSYWVHWVRQAPGKGLEWVAEINPTNGRTNYIEKFKSRITLSVDKSKSTVYLQMNSLRAEDTAVYYCARGTRAYHYWGQGTLVTVSS
VL: DIQLTQSPSSLSASVGDRVTITCRASDNLYRNLAWYQQKPGKAPKLLIYDATKLASGVPSRFSGSGSGTDYTLTISSLQPEDFATYYCQHFWGTPLTFGQGTKVEIKR
For B3, the Kd came out at 1.75 nM in experiment [1]; 0.35 nM in experiment [2]; 0.543 nM in experiment [3]; 0.95 nM in experiment [4]; 3.02 nM in experiment [5]; 0.52 nM in experiment [6]. In addition, the off-rate constant (koff) is 0.00328 s⁻¹ in experiment [1] and 0.000804 s⁻¹ in experiment [3]. Besides, the results for the kon in experiment [1] and in experiment [3] were 1.87e+06 M⁻¹ s⁻¹ and 1.48e+06 M⁻¹ s⁻¹, respectively.

B4: Fab0060 (Fab, V domains shown)
VH: EVQLVESGGGLVQPGGSLRLSCATSGYTFTSYWVHWVRQAPGKGLEWVAEINPTNGRTNYIEKFKSRITLSVDKSKSTVYLQMNSLRAEDTAVYYCARGTRAYHYWGQGTLVTVSS
VL: DIQLTQSPSSLSASVGDRVTITCRASDGLYSNLAWYQQKPGKAPKLLIYDATKLASGVPSRFSGSGSGTDYTLTISSLQPEDFATYYCQHFWGTPLTFGQGTKVEIKR
In the case of B4, the Kd was determined as 2.71 nM in experiment [1]; 0.49 nM in experiment [2]; 0.907 nM in experiment [3]; 1.56 nM in experiment [4]; 4.58 nM in experiment [5]; 0.81 nM in experiment [6]. Moreover, the results for the koff in experiment [1] and in experiment [3] were 0.00357 s⁻¹ and 0.00111 s⁻¹, respectively. Besides, the kon in experiment [1] was 1.32e+06 M⁻¹ s⁻¹; in experiment [3], 1.22e+06 M⁻¹ s⁻¹.

B5: Fab0062 (Fab, V domains shown)
VH: EVQLVESGGGLVQPGGSLRLSCATSGYTFTSYWMHWVRQAPGKGLEWVAEINPTNGRVNYIEKFKSRITLSVDKSKSTVYLQMNSLRAEDTAVYYCARGTRAYHYWGQGTLVTVSS
VL: DIQLTQSPSSLSASVGDRVTITCRASDGLYSNLAWYQQKPGKAPKLLIYDAFNLASGVPSRFSGSGSGTDYTLTISSLQPEDFATYYCQHFWGTPLTFGQGTKVEIKR
With B5, the Kd in experiment [1] is 3.22 nM; in experiment [2], 0.65 nM; in experiment [3] it was 0.993 nM; in experiment [4] it was 3.48 nM; in experiment [5] it was 9.14 nM; in experiment [6], 1.1 nM. Besides, the koff was determined as 0.00515 s⁻¹ in experiment [1] and 0.00117 s⁻¹ in experiment [3]. For the same molecule, the kon in experiment [1] was determined as 1.6e+06 M⁻¹ s⁻¹; in experiment [3] it was 1.18e+06 M⁻¹ s⁻¹.

B6: Fab0064 (Fab, V domains shown)
VH: EVQLVESGGGLVQPGGSLRLSCATSGYTFTSYWMHWVRQAPGKGLEWVAEINPTNGRVNYIEKFKSRITLSVDKSKSTVYLQMNSLRAEDTAVYYCARGTRAYHYWGQGTLVTVSS
VL: DIQLTQSPSSLSASVGDRVTITCRASDGLYSNLAWYQQKPGKAPKLLIYDAKNLASGVPSRFSGSGSGTDYTLTISSLQPEDFATYYCQHFWGTPLTFGQGTKVEIKR
Turning to B6, the Kd in experiment [1] was 2.45 nM; in experiment [2], 0.34 nM; in experiment [3], 0.754 nM; in experiment [4] it was 2.02 nM; in experiment [5], 5.04 nM; in experiment [6], 0.67 nM. The koff in experiment [1] came out at 0.00367 s⁻¹; in experiment [3], 0.00111 s⁻¹. Also, the kon in experiment [1] is 1.5e+06 M⁻¹ s⁻¹; in experiment [3] it was 1.47e+06 M⁻¹ s⁻¹.

B7: Fab0063 (Fab, V domains shown)
VH: EVQLVESGGGLVQPGGSLRLSCATSGYTFTSYWMHWVRQAPGKGLEWVAEINPTNGRVNYIEKFKSRITLSVDKSKSTVYLQMNSLRAEDTAVYYCARGTRAYHYWGQGTLVTVSS
VL: DIQLTQSPSSLSASVGDRVTITCRASDGLYSNLAWYQQKPGKAPKLLIYDATRLASGVPSRFSGSGSGTDYTLTISSLQPEDFATYYCQHFWGTPLTFGQGTKVEIKR
As for B7, the Kd in experiment [1] worked out at 2.72 nM; in experiment [2], 0.48 nM; in experiment [3] it was 0.598 nM; in experiment [4], 2.63 nM; in experiment [5], 5.57 nM; in experiment [6], 0.67 nM. Further, the koff is 0.00446 s⁻¹ in experiment [1] and 0.00105 s⁻¹ in experiment [3]. Further, the values for the kon in experiment [1] and in experiment [3] were 1.64e+06 M⁻¹ s⁻¹ and 1.75e+06 M⁻¹ s⁻¹, respectively.

B8: Fab0066 (Fab, V domains shown)
VH: EVQLVESGGGLVQPGGSLRLSCATSGYTFTSYWVHWVRQAPGKGLEWVAEINPTNGRVNYIEKFKSRITLSVDKSKSTVYLQMNSLRAEDTAVYYCARGTRAYHYWGQGTLVTVSS
VL: DIQLTQSPSSLSASVGDRVTITCRASDGLYSNLAWYQQKPGKAPKLLIYDAFNLASGVPSRFSGSGSGTDYTLTISSLQPEDFATYYCQHFWGTPLTFGQGTKVEIKR
Take B8: the Kd in experiment [1] came to 4.35 nM; in experiment [2] it was 0.87 nM; in experiment [3], 1.41 nM; in experiment [4], 1.34 nM; in experiment [5], 9.4 nM; in experiment [6], 0.91 nM. The off-rate constant (koff) in experiment [1] turned out to be 0.00509 s⁻¹; in experiment [3], 0.00139 s⁻¹. The values for the association rate constant (kon) in experiment [1] and in experiment [3] were 1.17e+06 M⁻¹ s⁻¹ and 985000 M⁻¹ s⁻¹, respectively.

The values above are taken from patent US20260191981A1 (ARROWHEAD PHARMACEUTICALS, published 2026).
